Data published in patent US20140072613A1 (published 2014).

Assays:
Test in all cases: cell-based or functional assay
NEK6(h) = NEK6(h) (human, UniProt Q9HC98 1-313)
Snk(h) = Snk(h) (human, UniProt Q9NYY3 1-685, limits assumed)
SGK(h) = biological target: T1, SGK(h) (human, UniProt O00141 60-431, limits assumed)
T1 sequence (looked up): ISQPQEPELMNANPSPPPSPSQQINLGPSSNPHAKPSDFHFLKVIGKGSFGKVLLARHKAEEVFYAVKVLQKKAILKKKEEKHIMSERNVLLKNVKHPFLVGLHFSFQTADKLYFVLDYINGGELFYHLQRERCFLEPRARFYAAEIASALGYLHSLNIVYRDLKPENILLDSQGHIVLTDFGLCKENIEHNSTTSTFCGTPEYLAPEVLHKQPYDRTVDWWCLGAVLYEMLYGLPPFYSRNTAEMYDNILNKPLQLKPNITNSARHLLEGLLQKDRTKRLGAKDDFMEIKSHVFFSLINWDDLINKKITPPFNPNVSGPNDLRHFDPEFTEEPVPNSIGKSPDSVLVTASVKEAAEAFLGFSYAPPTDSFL

LIMK1(h) = LIMK1(h) (human, UniProt P53667 285-638, limits assumed)
IRAK4(h) = biological target: T2, IRAK4(h) (human, UniProt Q9NWZ3 1-460, limits assumed)
T2 sequence (looked up): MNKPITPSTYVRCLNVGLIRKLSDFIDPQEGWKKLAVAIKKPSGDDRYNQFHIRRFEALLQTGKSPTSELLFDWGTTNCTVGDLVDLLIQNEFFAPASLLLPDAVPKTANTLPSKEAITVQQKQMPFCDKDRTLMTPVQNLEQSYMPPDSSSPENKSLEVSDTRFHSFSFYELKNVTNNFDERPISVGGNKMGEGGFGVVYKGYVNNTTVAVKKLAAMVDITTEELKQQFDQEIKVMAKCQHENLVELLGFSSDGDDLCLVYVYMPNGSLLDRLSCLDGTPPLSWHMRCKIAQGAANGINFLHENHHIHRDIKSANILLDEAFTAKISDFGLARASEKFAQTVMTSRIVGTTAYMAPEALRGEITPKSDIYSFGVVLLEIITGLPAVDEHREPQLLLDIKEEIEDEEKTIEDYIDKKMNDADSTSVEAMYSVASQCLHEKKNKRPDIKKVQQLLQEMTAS

Lyn(h) = Lyn(h) (human, UniProt P07948 1-512)
Flt1(h) = biological target: T3, Flt1(h) (human, UniProt P17948 781-1338, limits assumed)
T3 sequence (looked up): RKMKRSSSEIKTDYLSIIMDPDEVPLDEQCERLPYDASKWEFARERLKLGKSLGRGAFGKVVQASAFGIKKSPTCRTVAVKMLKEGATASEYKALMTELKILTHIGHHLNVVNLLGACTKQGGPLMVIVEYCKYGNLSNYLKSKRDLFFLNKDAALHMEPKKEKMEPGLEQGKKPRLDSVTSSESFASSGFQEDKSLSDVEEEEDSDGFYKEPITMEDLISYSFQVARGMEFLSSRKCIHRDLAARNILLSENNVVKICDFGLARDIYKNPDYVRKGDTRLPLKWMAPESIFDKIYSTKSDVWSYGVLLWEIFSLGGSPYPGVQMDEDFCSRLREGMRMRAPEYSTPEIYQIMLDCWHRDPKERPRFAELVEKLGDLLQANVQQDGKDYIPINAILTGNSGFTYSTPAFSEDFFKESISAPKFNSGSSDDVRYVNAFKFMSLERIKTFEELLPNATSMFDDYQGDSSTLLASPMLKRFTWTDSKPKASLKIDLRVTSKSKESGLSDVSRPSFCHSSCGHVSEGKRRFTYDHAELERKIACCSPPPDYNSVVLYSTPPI

Fgr(h) = Fgr(h) (human, UniProt P09769 1-529)
GRK7(h) = biological target: T4, GRK7(h) (human, UniProt Q8WTQ7 1-553)
T4 sequence (looked up): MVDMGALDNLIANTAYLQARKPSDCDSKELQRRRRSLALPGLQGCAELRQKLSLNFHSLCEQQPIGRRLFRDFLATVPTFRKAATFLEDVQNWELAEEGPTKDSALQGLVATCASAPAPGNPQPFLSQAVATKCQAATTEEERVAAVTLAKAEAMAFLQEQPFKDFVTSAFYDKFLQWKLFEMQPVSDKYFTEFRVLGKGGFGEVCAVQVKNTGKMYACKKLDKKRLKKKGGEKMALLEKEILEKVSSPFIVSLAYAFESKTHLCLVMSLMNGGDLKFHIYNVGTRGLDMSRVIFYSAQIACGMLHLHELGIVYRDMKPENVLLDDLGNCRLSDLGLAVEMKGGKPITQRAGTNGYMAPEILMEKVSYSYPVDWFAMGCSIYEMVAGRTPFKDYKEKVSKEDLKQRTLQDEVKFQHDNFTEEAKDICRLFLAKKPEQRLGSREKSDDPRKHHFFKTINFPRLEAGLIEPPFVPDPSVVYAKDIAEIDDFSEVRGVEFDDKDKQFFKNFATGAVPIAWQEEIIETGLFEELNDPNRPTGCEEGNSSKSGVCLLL

Abl(Y253F)(h) = Abl(Y253F)(h) (human, UniProt P00519 27-1130, limits assumed)
Fer(h) = Fer(h) (human, UniProt P16591 541-822, limits assumed)
MRCKα(h) = MRCKα(h) (human, UniProt Q5VT25 1-473, limits assumed)
MRCKα(h), sequence (Q5VT25 1-473 limits assumed): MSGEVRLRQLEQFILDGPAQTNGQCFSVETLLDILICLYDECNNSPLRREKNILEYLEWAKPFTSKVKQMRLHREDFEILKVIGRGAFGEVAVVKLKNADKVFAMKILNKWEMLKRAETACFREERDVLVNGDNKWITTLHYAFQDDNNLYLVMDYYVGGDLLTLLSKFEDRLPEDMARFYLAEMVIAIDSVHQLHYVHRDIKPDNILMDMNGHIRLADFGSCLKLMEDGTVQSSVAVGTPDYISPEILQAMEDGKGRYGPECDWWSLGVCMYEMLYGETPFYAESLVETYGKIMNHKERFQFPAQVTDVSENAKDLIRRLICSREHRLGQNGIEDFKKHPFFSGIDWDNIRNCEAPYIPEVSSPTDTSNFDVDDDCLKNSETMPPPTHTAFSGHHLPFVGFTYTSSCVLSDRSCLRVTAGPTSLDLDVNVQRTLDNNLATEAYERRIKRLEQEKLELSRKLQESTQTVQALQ

NEK6(h), sequence (Q9HC98 whole entry): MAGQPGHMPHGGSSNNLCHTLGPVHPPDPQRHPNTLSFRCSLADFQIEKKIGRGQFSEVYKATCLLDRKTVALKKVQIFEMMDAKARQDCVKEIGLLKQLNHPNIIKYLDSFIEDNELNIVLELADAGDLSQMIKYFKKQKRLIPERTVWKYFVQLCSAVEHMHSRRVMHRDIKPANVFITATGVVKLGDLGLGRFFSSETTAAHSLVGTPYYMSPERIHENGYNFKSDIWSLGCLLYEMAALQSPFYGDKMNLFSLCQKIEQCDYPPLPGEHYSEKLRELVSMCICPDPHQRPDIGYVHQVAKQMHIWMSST
Lyn(h), sequence (P07948 whole entry): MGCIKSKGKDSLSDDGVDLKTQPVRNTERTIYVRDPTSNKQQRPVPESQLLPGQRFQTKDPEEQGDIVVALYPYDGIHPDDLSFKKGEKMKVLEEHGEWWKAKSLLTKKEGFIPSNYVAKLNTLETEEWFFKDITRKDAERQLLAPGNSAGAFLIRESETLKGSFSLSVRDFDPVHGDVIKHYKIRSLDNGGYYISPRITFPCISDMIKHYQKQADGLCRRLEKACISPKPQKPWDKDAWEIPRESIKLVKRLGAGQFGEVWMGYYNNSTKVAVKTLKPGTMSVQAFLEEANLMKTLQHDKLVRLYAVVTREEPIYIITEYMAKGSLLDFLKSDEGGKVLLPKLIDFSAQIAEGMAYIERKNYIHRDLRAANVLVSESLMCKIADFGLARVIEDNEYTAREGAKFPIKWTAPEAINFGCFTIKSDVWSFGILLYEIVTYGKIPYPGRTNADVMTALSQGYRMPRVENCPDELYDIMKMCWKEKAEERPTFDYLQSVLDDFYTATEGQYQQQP
Abl(Y253F)(h), sequence (P00519 27-1130 Y253F limits assumed): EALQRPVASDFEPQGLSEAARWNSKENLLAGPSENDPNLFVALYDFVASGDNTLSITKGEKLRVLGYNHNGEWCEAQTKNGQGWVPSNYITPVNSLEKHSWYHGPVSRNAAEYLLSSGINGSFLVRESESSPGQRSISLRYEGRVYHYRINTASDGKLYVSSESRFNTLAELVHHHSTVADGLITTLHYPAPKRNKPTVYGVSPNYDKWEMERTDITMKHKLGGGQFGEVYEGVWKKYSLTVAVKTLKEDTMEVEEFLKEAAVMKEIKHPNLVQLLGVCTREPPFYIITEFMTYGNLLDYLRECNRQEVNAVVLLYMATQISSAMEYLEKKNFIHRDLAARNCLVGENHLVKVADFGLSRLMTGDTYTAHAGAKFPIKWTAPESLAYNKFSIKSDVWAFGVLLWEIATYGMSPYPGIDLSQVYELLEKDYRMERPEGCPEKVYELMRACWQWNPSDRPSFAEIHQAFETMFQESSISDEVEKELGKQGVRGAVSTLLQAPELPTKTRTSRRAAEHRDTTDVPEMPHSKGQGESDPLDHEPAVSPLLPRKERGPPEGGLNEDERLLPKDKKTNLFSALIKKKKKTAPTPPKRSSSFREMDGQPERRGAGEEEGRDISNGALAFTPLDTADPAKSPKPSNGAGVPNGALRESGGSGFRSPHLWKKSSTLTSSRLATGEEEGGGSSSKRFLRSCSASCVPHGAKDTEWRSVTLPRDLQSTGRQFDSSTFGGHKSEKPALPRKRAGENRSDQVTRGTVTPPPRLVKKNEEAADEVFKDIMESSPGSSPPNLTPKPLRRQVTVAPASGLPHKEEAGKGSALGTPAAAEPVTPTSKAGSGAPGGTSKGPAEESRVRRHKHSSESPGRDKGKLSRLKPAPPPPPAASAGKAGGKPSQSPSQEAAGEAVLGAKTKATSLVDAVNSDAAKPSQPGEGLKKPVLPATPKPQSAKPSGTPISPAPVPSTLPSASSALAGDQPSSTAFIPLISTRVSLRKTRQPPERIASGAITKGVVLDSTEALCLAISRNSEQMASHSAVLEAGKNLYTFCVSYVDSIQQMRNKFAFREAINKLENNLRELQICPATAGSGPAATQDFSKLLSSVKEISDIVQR
Snk(h), sequence (Q9NYY3 whole entry): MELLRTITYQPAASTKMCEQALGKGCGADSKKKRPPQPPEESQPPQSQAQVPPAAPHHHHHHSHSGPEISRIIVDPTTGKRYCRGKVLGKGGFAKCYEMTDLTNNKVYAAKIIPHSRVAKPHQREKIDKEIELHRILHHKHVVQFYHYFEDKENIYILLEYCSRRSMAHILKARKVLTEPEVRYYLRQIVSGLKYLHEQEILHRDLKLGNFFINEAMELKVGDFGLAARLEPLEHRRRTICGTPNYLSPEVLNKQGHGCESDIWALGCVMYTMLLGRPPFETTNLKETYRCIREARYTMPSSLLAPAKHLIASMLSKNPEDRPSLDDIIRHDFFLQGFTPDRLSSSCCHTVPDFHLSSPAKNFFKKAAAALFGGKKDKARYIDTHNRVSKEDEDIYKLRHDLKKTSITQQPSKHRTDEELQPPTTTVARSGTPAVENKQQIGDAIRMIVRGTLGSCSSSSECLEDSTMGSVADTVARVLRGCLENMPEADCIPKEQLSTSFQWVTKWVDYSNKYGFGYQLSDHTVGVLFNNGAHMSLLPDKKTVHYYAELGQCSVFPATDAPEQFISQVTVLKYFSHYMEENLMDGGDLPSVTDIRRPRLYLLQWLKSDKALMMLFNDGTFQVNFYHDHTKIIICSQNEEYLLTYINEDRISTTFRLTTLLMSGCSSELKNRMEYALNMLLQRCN
Fer(h), sequence (P16591 541-822 limits assumed): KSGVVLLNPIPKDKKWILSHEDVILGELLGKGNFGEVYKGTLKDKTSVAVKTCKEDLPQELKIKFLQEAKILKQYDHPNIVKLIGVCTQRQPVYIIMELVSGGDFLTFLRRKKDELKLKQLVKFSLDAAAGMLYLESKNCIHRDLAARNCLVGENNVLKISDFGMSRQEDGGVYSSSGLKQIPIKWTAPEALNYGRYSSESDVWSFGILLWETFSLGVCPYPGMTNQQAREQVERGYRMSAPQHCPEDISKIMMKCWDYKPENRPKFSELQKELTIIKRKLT
LIMK1(h), sequence (P53667 285-638 limits assumed): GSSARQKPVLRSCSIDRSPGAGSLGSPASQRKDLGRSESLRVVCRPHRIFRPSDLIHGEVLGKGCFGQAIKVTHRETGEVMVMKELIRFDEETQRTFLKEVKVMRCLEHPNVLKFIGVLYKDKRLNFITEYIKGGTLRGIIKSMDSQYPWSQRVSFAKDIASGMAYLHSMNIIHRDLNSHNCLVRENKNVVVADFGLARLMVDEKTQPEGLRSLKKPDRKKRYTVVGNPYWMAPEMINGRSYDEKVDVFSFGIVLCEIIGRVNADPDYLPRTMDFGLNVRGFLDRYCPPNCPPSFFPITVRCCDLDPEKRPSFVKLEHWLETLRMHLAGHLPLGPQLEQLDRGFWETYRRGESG

B1: MMI-0400 (peptide)
peptide: KAFAKLAARLYRKALARQLGVAA
% activity, 100 µM (NEK6(h)): 85% | % activity, 100 µM (Snk(h)): 131% | % activity, 100 µM (SGK(h)): 54% | % activity, 100 µM (LIMK1(h)): 92% | % activity, 100 µM (IRAK4(h)): 59% | % activity, 100 µM (Lyn(h)): 3% | % activity, 100 µM (Flt1(h)): 48% | % activity, 100 µM (Fgr(h)): 47% | % activity, 100 µM (GRK7(h)): 100% | % activity, 100 µM (Abl(Y253F)(h)): 78% | % activity, 100 µM (Fer(h)): 108% | % activity, 100 µM (MRCKα(h)): 97%

B2: MMI-0300 (peptide)
peptide: FAKLAARLYRKALARQLGVAA
% activity, 100 µM (NEK6(h)): 82% | % activity, 100 µM (Snk(h)): 114% | % activity, 100 µM (SGK(h)): 48% | % activity, 100 µM (LIMK1(h)): 88% | % activity, 100 µM (IRAK4(h)): 59% | % activity, 100 µM (Lyn(h)): 69% | % activity, 100 µM (Flt1(h)): 69% | % activity, 100 µM (Fgr(h)): 60% | % activity, 100 µM (GRK7(h)): 122% | % activity, 100 µM (Abl(Y253F)(h)): 86% | % activity, 100 µM (Fer(h)): 130% | % activity, 100 µM (MRCKα(h)): 104%
